Assay results: patent publication US7460961B2, “N-TRADD active site and uses thereof” (Genetics Institute, LLC, priority 2000, dated 2008)

Assay: Solubility and stability of the N-TRADD NMR sample
Type: physicochemical
From the text: Cloning and site directed mutagenesis: The DNA sequence coding for the first 169 amino acids from N-TRADD was cloned in pRSETB (Invitrogen) after amplification by PCR. The primer at the 5′ end introduces an NdeI site upstream from the initiation site, and the primer at the 3′ end introduces a His tag after aa169. The sequence was confirmed by sequencing analysis. Single point mutations were introduced using Chameleon double-stranded site directed mutagenesis (Stratagene). The C-TRAF2 sequence (residues 262 to 501 of human TRAF2) was amplified by PCR using a 5′ end primer flanking with an XhoI and NdeI site, which introduces a Met before residue 262, and a 3′ end primer introducing 6×His before a stop codon followed by a NcoI site. The C-TRAF2 sequence was cloned into pAcSG2 (Pharmingen) by XhoI and NcoI sites for baculovirus expression. Protein expression and purification: The polypeptide for N-TRADD (1-169) was overexpressed in BL-21 E. coli. [U-^15N] or [U-^13C, U-^15N]. N-TRADD was purified from cells grown at 25° C. on minimal medium containing 2 g/L […] or [^15N]ammonium sulfate and 2 g/L [U-^13C]glucose. […]
Structure Determination: The structure of N-TRADD was determined from 2302 NMR derived restraints obtained using uniformly ^15N and ^15N/^13C labeled protein, with double and triple resonance NMR experiments. […]

B1: N-TRADD: N-terminal domain (amino acid residues 1-169, SEQ ID NO:1) of human TNFR-1 associated death domain protein (protein)
chain: MAAGQNGHEWVGSAYLFVESSLDKVVLSDAYAHPQQKVAVYRALQAALAESGGSPDVLQMLKIHRSDPQLIVQLRFCGRQPCGRFLRAYREGALRAALQRSLAAALAQHSVPLQLELRAGAERLDALLADEERCLSCILAQQPDRLRDEELAELEDALRNLKCGSGAR
Question: Which solubility (dithiothreitol (20 mM) required to prevent aggregation) does the source give for B1 here?
Answer: The solubility was roughly 1000 µM.

Question: What about the sample stability (~1 mM, 20 mM dithiothreitol) of the same molecule?
Answer: The sample stability was 6-8 weeks.
